Usually EC50 (read off the curve) stands for the concentration that produces a half-maximal response. Usually EC50 stands for the concentration at which the effect is half-maximal.

This is an account of results in patent publication US20240052042A1 (Novartis, published 2024).

For assay [1], the target named is T1, hNPR1-ANP complex (human, UniProt P01160 124-151, limits assumed).
T1 construct: hNPR1 antigen in the presence of ANP; also called hNPR1 + 100 nM ANP
T1 sequence: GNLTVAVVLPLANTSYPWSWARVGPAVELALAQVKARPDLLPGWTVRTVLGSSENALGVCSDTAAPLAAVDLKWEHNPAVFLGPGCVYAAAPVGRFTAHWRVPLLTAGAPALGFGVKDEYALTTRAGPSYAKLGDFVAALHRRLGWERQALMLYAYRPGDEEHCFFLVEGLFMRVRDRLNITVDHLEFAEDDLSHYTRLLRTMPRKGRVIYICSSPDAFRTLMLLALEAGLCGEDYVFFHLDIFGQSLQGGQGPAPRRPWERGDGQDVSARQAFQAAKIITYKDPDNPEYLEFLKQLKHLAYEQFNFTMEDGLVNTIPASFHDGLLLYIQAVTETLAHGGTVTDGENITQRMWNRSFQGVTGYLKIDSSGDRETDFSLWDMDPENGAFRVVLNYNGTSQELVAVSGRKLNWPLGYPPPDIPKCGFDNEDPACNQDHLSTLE
T1 sequence (peptide): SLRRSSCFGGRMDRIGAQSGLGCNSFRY
Put plainly: ELISA, 1 µM IgG. More on the design: unit not given here. On the technique in general: An ELISA detects its analyte on a solid surface through an enzyme-linked reagent.

Assay [2] has as its target T2, rNPR1-ANP complex (rat, UniProt P01160 124-151 (human entry), limits assumed).
T2 construct: rNPR1 antigen in the presence of ANP; also called rNPR1 + 100 nM ANP
T2 sequence: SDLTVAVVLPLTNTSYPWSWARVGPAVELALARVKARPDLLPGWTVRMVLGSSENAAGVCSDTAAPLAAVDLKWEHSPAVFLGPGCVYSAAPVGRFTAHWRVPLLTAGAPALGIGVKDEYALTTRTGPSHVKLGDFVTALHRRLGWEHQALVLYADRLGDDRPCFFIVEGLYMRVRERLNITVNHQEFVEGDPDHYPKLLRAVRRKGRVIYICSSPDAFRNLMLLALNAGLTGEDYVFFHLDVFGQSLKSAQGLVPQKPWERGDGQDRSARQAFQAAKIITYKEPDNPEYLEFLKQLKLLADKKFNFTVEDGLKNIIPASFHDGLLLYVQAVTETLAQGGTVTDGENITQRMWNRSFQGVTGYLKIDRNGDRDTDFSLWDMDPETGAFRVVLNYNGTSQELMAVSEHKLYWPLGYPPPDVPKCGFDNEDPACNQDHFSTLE
T2 sequence (peptide): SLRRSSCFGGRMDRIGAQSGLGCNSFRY
Put plainly: ELISA, 1 µM IgG. More on the design: unit not given here.

Assay [3] addresses T3, human NPR1 on CHO-K1 cells in the presence of ANP (human, UniProt P01160 124-151).
T3 construct: also called hNPR1 CHO K1 + 100 nM ANP
T3 sequence: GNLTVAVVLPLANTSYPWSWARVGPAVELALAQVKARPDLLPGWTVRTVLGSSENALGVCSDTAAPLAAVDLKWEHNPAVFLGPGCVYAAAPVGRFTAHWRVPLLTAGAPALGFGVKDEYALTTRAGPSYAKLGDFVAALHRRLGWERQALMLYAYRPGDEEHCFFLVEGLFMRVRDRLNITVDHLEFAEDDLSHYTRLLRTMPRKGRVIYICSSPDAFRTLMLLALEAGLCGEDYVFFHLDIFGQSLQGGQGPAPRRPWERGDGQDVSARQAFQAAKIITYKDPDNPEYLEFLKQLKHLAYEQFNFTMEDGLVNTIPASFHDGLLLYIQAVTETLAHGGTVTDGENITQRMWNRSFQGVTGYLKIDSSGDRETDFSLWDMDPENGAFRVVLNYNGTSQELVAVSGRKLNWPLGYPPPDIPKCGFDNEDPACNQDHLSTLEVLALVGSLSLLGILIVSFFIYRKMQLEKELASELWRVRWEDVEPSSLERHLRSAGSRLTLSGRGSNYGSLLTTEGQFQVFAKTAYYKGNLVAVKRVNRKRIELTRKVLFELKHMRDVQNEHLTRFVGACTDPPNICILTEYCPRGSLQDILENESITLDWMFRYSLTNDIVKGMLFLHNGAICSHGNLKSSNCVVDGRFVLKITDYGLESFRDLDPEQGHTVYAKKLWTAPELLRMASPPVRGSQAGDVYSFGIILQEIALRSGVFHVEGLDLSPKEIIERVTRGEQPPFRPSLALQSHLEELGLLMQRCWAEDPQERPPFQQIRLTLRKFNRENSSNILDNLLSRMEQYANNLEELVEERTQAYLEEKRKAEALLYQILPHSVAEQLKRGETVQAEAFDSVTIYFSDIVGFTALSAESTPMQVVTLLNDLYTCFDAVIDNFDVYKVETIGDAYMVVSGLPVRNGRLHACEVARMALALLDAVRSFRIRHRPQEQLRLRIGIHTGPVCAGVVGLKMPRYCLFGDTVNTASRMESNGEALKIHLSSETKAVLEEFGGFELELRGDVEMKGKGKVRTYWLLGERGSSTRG
T3 sequence (peptide): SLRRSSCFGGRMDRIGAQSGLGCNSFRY
As to the kind of experiment: flow cytometry, hNPR1 CHO-K1 cells, IgG.

The target in assay [4] is T3, human NPR1 on CHO-K1 cells in the …. Put plainly: flow cytometry (FL2-H) on hNPR1 CHO-K1 cells with saturating ANP, IgG titrated; control parental CHO-K1 [Cont.), panel YY04]. On the technique in general: Flow cytometry measures light scatter and fluorescence of single cells or particles in a stream.
Assay [5] has as its target T4, human Natriuretic Peptide Receptor 1 (hNPR1) (human, UniProt P16066 33-473, limits assumed).
T4 construct: pannings used NPR1-hFc; also called NPR1-hFc
T4 sequence: T1 sequence
Put plainly: ELISA, IgG titrated on coated antigen, fluorescence [Cont.].

Assay [6] concerns the target T5, rat NPR1 (rNPR1) (rat, UniProt P18910 29-469, limits assumed).
T5 construct: Soluble antigen
T5 sequence: T2 sequence
The description is as above.

The target of assay [7] is T3, human NPR1 on CHO-K1 cells in the …. Put plainly: flow cytometry (FL2-H) on hNPR1 CHO-K1 cells with saturating ANP, IgG titrated; control parental CHO-K1 [Cont.), panel XX08].
Assay [8] has the same target. As to the kind of experiment: flow cytometry (FL2-H) on hNPR1 CHO-K1 cells with saturating ANP, IgG titrated; control parental CHO-K1 [panel XX01].
The target in assay [9] is T1, hNPR1-ANP complex. Put plainly: FRET ANP competition assay, IgG titrated on hNPR1 with Cy5-labeled ANP; negative values mean more ANP signal [panel XX01]. How it is done: The same 31 IgGs were tested for ANP competition using a Fluorescence Resonance Energy Transfer (FRET)-based assay in which the NPR1-specific antibodies competed with ANP for binding to NPR1. In this FRET based assay (see FIG. 3), Eu-labeled Streptavidin (for measurement of IgGs) or Eu-labeled anti-hFc antibody (for measurement of FabCys) was used as an energy donor, while Cy5-labeled ANP was used as an acceptor (for all measurements). The resulting fluorescent signal was decreased by ANP-competitive antibodies. The assay was performed as follows: antibodies were mixed with NPR1 and incubated for 5 minutes at room temperature. After addition of the Eu-labeled donor and incubation for 30 minutes at room temperature, the Cy5-ANP solution was added. After a further 60-minute incubation, readout was performed using a TECAN Infinite M1000 Pro using an excitation wavelength of 317 nm and an emission wavelength of 665 nm. Percentage of ANP competition was calculated according to the following formulae: […]

The target of assay [10] is W74R hNPR1 mutant in the presence of ANP (human) (UniProt P01160). Put plainly: ELISA, IgG.
Assay [11] deals with constitutively active human NPR1 mutant (W74R) (human) (UniProt P16066). Put plainly: ELISA, IgG.
Assay [12] addresses human NPR1 on CHO-K1 cells in the presence of ANP (human) (UniProt P01160). As to the kind of experiment: flow cytometry, hNPR1 CHO-K1 cells, IgG.
Assay [13] deals with T5, rat NPR1 (rNPR1). Put plainly: ELISA, IgG titrated on coated antigen, fluorescence [Cont.]. This is another data set of the same source.
In assay [14] the target is T2, rNPR1-ANP complex. Put plainly: ELISA, IgG titrated on coated antigen with ANP (250 fold molar excess), fluorescence [Cont.].
Assay [15] concerns the target T3, human NPR1 on CHO-K1 cells in the …. Put plainly: flow cytometry (FL2-H) on hNPR1 CHO-K1 cells with saturating ANP, IgG titrated; control parental CHO-K1 [panel XX04].

Residue numbers refer to the chain shown, from its start.

B1: YY04 (IgG format) (antibody, V domains shown)
VH: EVQLVESGGGLVKPGGSLRLSCAASGFTFSNYWISWVRQAPGKGLEWVGRIKSKTYGGTTDYAEPVKGRFTISRDDSKNTLYLQMNSLKTEDTAVYYCAREKYSIRARGHGDYGFDVWGQGTLVTVSS
VL: DIQMTQSPSSLSASVGDRVTITCRASQGISNYLAWYQQKPGKVPKLLIYAASTLQSGVPSRFSGSGSGTDFTLTISSLQPEDVATYYCQQGYHAPFTFGQGTKVEIKR
notes: also called YY04_LALA
B1: the “ELISA binding at 1 µM IgG” value in assay [1] came out at 60; in assay [2], 54. Also, in assay [3], the “flow cytometry S/BG at 1 µM IgG” value stood at 33 S/BG. In addition, in assay [4], the “EC50 (read off the curve)” value was around 200 pM.

B2: XX08 (antibody, V domains shown)
VH: EVQLLESGGGLVQPGGSLRLSCAASGFTFNTHYIHWVRQAPGKGLEWVSSIGGQGGMTLYADSVKGRFTISRDNSKNTLYLQMNSLRAEDTAVYYCARERGYVYYHMFDPWGQGTLVTVSS
VL: DIVLTQSPATLSLSPGERATLSCRASQSITRNYLAWYQQKPGQAPRLLIYGASSRATGIPARFSGSGSGTDFTLTISSLEPEDFAVYYCQQHSMYPRTFGQGTKVEIKR
notes: x axis reads IgG conc; [nM]; also called XX08 (IgG format)
As for B2, the “EC50 (read off the curve)” value in assay [5] was around 20000 pM; in [6], around 20000 pM; in [7], around 2000 pM.

B3: XX01 (IgG format) (antibody, V domains shown)
VH: B2 VH with G52S, G53S, Q54S, G56Q, M57S, L59Y
VL: DIVLTQSPATLSLSPGERATLSCRASQSITRNYLAWYQQKPGQAPRLLIYGASSRATGIPARFSGSGSGTDFTLTISSLEPEDFAVYYCQQHSMYPRTFGQGTKVEIK
With B3, the “EC50 (read off the curve)” value in assay [8] is around 800 pM; in assay [9], around 100 pM.

B4: WW06 (IgG format) (antibody, V domains shown)
VH: QVQLVQSGAEVKKPGESLKISCKGSGYSFTSYWIAWVRQMPGKGLEWMGRIDPDNSYTRYSPSFQGQVTISADKSISTAYLQWSSLKASDTAMYYCARWLSPGYALGEQPAGMDHWGQGTLVTVSS
VL: DIVLTQPPSVSGAPGQRVTISCTGSSSNIGAGYAVHWYQQLPGTAPKLLIYSNNKRPSGVPDRFSGSKSGTSASLAITGLQAEDEADYYCQSYDLQKSSRVFGGGTKLTVLG
notes: also called WW06_LALA
Turning to B4, the EC50 in assay [10] was found to be 800 pM; in assay [11], 900 pM. Further, the flow cytometry S/BG at 2 µM IgG in assay [12] turned out to be 1.1 S/BG. The binding result in assay [13] and in assay [14] was “no binding (tested: 1000 nM)” throughout.

B5: XX04 (IgG format) (antibody, V domains shown)
VH: QVQLLESGGGLVQPGGSLRLSCAASGFTFSSYWMNWVRQAPGKGLEWVSAISSDGSYTYYADSVKGRFTISRDNSKNTLYLQMNSLRAEDTAVYYCARDRYSMIYSYGAGAFDYWGQGTLVTVSS
VL: DIQMTQSPSSLSASVGDRVTITCRASQGISSYLAWYQQKPGKAPKLLIYTASTLQSGVPSRFSGSGSGTDFTLTISSLQPEDFATYYCQQEWVKPRTFGQGTKVEIK
On to B5, for which the “EC50 (read off the curve)” value in assay [15] was around 2000 pM.
